Test results from article doi:10.1101/2023.12.10.570967.

Molecular target: Drosophila Eggless/SetDB1 tandem Tudor domains (3TD, aa 444-700), wild type (Drosophila) (UniProt Q32KD2)
Experiment: SPR

Sequence of UniProt Q32KD2 (Q32KD2 444-700): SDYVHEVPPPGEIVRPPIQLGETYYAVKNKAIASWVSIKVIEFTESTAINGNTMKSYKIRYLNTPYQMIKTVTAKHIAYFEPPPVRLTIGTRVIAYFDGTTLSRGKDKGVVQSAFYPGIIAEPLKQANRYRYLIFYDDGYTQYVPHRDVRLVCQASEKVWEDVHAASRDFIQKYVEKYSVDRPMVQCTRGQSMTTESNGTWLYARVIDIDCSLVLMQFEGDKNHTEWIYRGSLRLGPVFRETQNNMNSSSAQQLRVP

Kd: 486 µM
Substance: H3K14ac peptide
